The text below walks through data of paper PMC9295118, “Tungsten Enzyme Using Hydrogen as an Electron Donor to Reduce Carboxylic Acids and NAD^+” (ACS Catalysis, 2022).

Broadly, the Km is the substrate concentration at which the rate is half of its maximum. What is called Vmax is the rate approached at saturating substrate. The term kcat denotes the number of substrate molecules converted per active site and unit of time at saturation. What is called kcat/Km is the second-order rate constant that governs catalysis at low substrate concentration.

The target in one data set is T1, BaDH (Aromatoleum aromaticum, UniProt Q5P459).
T1 construct: gene adh; recombinant, expressed in E. coli BL21(DE3), purified; details in supplement
T1 sequence (Q5P459 1-362): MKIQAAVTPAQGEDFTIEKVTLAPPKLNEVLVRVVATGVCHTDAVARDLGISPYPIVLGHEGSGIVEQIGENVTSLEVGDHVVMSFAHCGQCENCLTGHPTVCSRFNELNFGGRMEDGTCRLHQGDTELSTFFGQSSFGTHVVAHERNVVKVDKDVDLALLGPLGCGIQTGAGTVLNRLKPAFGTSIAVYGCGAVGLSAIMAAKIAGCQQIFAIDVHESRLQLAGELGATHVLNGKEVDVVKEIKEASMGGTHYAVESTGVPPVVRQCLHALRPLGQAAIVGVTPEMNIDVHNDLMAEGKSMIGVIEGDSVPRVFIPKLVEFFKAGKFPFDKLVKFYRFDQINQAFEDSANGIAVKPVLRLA
Put plainly: coupled assay with AORAa, NADPH at […] nm and HPLC of benzyl alcohol. The format is biochemical. To be noted: 100 mM citric buffer pH 5.5, 30 °C, benzaldehyde formed in situ by AORAa.

Substrate in data set [1]: O=Cc1ccccc1
Nature of the data set: steady-state kinetics, initial rates of benzaldehyde oxidation with NAD+. To be noted: 1 mM NAD+, Tris/HCl pH 8.0, 30 °C, aerobic, W-cofactor beta-subunit site. The data set is classed as biochemical, Aromatoleum aromaticum. An excerpt:
steady-state kinetics, initial rates of benzaldehyde oxidation with NAD+ on AORAa

Substrate in data set [2]: O=C(O)c1ccccc1
Put plainly: purified protein. To be noted: 2.5% H2 as electron donor, 0.6 mM NADPH, 100 mM citric buffer pH 5.5, 30 °C, W-cofactor beta-subunit site. The data set is classed as biochemical, Aromatoleum aromaticum.

Substrate in data set [3]: NC(=O)c1ccc[n+]([C@@H]2O[C@H](COP(=O)(O)OP(=O)(O)OC[C@H]3O[C@@H](n4cnc5c(N)ncnc54)[C@H](O)[C@@H]3O)[C@@H](O)[C@H]2O)c1
Put plainly: purified protein. The data set is classed as biochemical, Aromatoleum aromaticum. Particulars: 2.5% H2 as electron donor, 100 mM Tris/HCl pH 8.0, 30 °C, anaerobic, FAD gamma-subunit site expected.

As for `NC(=O)C1=CN([C@@H]2O[C@H](COP(=O)(O)OP(=O)(O)OC[C@H]3O[C@@H](n4cnc5c(N)ncnc54)[C@H](OP(=O)(O)O)[C@@H]3O)[C@@H](O)[C@H]2O)C=CC1` [NADPH], the “coupled assay with AORAa, NADPH at 365 nm and HPLC of benzyl alcohol” value on BaDH is recorded as “confirming that NADPH was only turned over by BaDH, not by AORAa”.

Turning to `O=Cc1ccccc1` [benzaldehyde], the “coupled assay with AORAa, NADPH at 365 nm and HPLC of benzyl alcohol” value on BaDH is on record as “it also catalyzed the reduction of benzaldehyde with either NADH or NADPH”.

B1: AORAa (Aromatoleum aromaticum EbN1) (protein)
chain 1: MGWNRKVLRVNLAEGTCTPEPLNMQWADEYLGSRGLATKYLVSETDPKVDPLSPDNKMIMATGPLTGTMASTGGRYTVVTKGPLTGAIACSNSGGFFGAEMKFAGWDMVIFEGRSPTPVYLFIENERAELRDASYLWGRSCWETEESIRAQHQDPLIRVSSIGRAGENQVMFACIVNDLHRAAGRSGVGAVMGSKNLKAVAIRGTKGVSGIRDFPGFVRATSEAKKVLAGNPVTSEGLPKFGTQVLMNVINEMGALPTRNHRDVQFEDASKISAEAMHEKRPSDGKPQLVTNAACFGCTIACGRISAIDKTHFTVKNNPKYWGASGGLEYEAAWALGAANGVGDLEALQYANLLCNEQGMDPISFGATVGAAMELYETGVLTKERIGLDAPFGSADALAKLAEMTATGEGFGKEIGLGSKRLCEKYGHPELSMSVKGQEFPAYDSRGIQGMGLAYATSNRGACHLRGYTVASEVLGVPVKTDPHVIEGKAELVKAFQDATAVFDSAGICVFTSFAWTLADVQPQIAAACDGDWSMDKLATVGERIWNMERQFNNAAGLGAQDDNLPPRLTSEPAKSGPAKGMVNRLAEMLPEYYGVRGWTPEGTPTPETLSRLGLS
chain 2: MKHVILGNGPAGVIAAETLRRAAPTDDILLFGSEDAPPYSRMAIPYLLEGNIDESGTWLRKSPGHFDRLRIHEMRGRAVSLDSERRRILFDDGHFESWDRLLIATGSHPVRPPIPGIDLPEVQTCWTLEDARAIARFATPGARVLQLGAGFIGCIIMEALAARGVELTVVEMGDRMVPRMMTPTAGGMIRKWVEDQGVRVVTNAGVSRIDCRASNDAPLDVTLSTGEVVVADLVIVAAGVAPNIAFLEATPVHVAKGVLVDDRLQTSVPGIFAAGDVAEAPDLFTGAHLVAAIQPNAADQARVAALNMAGHEARLKGVLAINVLDTLGLISSSFGQWWGEERERGGAGVEHVDEAAYRYLSLQFKDDVLIGATSIGLTEHVGALRGLIHGRVRLGEWKERLLHSPLQFVDAYIARSQQPMALVR
notes: full-length AorABC, N-terminal Twin-Strep-tag on AorA, co-expressed with AorDE in Aromatoleum evansii; (alpha-beta)2-gamma complex, 218 kDa; with Aldehyde oxidoreductase polyferredoxin (iron-sulfur) subunit alpha
Take B1: in data set [1], the Km was determined as 39.3 ± 6.6 µM, the Vmax was found to be 33.8 µmol/min/mg, the kcat worked out at 123 s⁻¹ and the kcat/Km came to 3.1e+06 M⁻¹ s⁻¹. Moreover, in “purified protein [2]”, the Km stood at 33700 µM and the kcat was 1.4 s⁻¹. Besides, in “purified protein [3]”, the Km is 21.7 ± 2.7 µM, the Vmax worked out at 3.7 µmol/min/mg, the kcat was determined as 13.4 s⁻¹ and the kcat/Km turned out to be 600000 M⁻¹ s⁻¹.
